Measurements published in the supplement of paper PMC9876800.

These substances were tested on peptide library, one residue held at a place counted from the S/T acceptor (assay: relative phosphorylation of the sub-library (ratio to the mean residue at this position); human; higher = residue favoured). Details: G fixed; at -3.
Summary of the method: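 Relative sub-library phosphorylation is the ratio of each sub-library's signal to the mean residue at that position. The signal came from phosphorimaging of spots on streptavidin membranes, quantified by densitometry, after purified recombinant kinases reacted with biotinylated degenerate peptide sub-libraries in 384-well plates. Reactions held 50 μM peptide and 50 μM ATP spiked with γ-32P-ATP for 90 min under kinase-specific conditions.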

Sequence of MAP4K3, construct: aa1-380 (Q8IVH8 1-380, looked up): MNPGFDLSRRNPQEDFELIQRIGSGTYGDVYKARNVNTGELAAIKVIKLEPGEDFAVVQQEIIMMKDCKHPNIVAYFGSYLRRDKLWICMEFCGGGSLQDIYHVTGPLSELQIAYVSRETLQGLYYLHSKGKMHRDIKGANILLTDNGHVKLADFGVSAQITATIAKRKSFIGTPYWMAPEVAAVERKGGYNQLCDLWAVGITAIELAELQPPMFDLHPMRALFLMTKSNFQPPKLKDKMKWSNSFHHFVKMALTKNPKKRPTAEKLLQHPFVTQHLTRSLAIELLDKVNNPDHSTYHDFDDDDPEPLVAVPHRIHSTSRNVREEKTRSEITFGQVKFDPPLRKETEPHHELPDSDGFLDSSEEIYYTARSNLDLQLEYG
Sequence of CHEK2, construct: Full length (O96017 whole entry, looked up): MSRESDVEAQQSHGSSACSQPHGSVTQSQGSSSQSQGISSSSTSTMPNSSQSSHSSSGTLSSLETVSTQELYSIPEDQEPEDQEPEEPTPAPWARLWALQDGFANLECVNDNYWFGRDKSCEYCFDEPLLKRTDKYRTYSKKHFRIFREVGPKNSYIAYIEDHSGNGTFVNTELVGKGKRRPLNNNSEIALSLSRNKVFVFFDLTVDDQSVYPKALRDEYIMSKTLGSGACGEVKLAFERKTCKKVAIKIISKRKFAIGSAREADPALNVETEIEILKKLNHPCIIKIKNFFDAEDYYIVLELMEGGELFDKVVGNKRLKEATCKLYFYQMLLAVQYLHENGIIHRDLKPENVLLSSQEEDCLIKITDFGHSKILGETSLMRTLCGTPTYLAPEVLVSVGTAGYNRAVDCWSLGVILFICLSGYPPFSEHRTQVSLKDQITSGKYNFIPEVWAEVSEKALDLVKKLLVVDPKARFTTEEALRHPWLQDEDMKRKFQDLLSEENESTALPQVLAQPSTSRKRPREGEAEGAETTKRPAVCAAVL
Sequence of CAMK1, construct: Full length (Q14012 whole entry, looked up): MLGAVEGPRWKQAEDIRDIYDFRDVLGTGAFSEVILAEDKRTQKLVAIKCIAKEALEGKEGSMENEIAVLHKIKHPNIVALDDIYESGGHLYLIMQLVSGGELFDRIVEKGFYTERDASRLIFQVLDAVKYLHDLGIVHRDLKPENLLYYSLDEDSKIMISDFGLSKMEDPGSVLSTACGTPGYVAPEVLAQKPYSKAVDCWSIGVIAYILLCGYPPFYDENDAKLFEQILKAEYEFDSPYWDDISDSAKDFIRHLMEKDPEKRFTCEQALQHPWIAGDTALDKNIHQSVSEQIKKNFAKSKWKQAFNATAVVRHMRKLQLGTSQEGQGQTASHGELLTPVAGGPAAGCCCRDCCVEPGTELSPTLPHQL
Sequence of TTBK1, construct: Full length (Q5TCY1 whole entry, looked up): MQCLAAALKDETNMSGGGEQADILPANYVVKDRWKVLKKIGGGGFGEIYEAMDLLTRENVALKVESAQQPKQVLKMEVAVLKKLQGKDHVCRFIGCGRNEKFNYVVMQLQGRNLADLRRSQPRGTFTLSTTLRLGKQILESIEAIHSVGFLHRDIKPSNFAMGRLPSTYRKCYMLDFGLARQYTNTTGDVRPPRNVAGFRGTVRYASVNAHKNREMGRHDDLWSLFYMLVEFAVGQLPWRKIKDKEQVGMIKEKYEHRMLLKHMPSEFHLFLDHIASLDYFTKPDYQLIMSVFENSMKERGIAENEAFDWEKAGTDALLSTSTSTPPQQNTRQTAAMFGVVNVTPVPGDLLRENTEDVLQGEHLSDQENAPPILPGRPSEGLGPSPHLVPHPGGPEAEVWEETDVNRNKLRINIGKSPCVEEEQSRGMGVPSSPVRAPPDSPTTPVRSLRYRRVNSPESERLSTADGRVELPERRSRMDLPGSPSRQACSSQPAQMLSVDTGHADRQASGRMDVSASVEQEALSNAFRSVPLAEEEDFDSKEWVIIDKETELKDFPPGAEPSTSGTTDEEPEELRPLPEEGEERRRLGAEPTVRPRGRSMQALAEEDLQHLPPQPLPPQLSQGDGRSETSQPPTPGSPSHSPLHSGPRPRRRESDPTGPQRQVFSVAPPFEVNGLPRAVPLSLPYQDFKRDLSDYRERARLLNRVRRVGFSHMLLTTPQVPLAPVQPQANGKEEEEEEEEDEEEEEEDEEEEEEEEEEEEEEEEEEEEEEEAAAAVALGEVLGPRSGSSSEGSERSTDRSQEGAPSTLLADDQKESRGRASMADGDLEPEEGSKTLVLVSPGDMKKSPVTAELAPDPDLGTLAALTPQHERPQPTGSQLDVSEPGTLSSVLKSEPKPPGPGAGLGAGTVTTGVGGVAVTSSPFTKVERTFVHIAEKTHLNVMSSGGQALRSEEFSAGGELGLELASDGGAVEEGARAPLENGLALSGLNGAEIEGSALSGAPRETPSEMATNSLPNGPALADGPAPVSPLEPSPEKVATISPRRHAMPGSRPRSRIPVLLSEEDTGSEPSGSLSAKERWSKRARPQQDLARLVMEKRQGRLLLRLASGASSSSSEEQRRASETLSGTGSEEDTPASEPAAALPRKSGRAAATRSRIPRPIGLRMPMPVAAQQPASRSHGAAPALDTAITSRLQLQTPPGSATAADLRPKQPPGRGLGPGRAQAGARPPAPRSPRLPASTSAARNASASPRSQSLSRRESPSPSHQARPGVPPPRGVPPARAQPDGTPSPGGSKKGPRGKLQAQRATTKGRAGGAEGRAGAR
Sequence of MAP3K10, construct: aa1-449 (Q02779 1-449, looked up): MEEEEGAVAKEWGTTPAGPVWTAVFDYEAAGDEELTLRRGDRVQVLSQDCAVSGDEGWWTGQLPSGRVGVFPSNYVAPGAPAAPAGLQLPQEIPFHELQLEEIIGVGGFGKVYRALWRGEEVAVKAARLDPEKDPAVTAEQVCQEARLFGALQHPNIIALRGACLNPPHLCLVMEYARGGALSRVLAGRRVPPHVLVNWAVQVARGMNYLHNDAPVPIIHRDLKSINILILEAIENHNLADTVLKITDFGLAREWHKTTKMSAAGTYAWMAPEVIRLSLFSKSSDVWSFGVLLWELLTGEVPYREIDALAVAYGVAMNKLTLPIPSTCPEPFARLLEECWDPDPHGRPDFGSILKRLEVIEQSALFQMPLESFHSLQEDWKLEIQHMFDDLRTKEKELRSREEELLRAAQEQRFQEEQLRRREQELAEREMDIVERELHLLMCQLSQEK
Sequence of EIF2AK1, construct: Full length (Q9BQI3 whole entry, looked up): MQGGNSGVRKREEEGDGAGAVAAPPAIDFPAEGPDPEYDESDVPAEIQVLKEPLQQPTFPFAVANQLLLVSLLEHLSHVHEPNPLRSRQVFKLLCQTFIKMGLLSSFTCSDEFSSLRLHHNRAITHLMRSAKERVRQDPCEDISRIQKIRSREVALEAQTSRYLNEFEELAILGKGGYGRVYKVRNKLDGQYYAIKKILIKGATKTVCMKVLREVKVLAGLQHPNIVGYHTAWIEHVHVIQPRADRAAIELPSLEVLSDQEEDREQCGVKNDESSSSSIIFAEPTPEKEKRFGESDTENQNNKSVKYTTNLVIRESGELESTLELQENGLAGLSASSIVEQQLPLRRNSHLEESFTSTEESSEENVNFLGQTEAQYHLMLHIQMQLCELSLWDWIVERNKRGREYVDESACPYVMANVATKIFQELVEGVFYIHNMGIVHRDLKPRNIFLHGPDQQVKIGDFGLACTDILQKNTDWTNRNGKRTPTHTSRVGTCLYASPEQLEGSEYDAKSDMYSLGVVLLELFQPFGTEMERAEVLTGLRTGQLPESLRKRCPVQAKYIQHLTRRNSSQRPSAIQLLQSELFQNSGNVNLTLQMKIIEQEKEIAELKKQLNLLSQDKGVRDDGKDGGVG
Sequence of MOK, construct: aa1-343 (Q9UQ07 1-343, looked up): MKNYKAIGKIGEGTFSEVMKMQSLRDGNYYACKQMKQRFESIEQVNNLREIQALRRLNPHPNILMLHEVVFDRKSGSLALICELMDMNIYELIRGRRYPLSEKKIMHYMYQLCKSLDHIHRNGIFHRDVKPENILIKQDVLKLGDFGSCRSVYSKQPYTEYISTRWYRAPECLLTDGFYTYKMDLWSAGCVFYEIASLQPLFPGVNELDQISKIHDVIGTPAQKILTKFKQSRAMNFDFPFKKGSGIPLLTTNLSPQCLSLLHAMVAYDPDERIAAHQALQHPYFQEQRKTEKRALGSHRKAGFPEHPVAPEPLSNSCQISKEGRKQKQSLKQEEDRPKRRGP

Q: For “EIF2AK1, construct: Full length (from UniProt Q9BQI3)”, which relative phosphorylation is on record?
A: 0.936

Q: For “PKN3, construct: Full length (from UniProt Q6P5Z2)”, which relative phosphorylation is on record?
A: 0.898

Same assay, conditions: G fixed; at -4

Q: Which relative phosphorylation does the source give for “MOK, construct: aa1-343 (from UniProt Q9UQ07)” here?
A: 0.89

Q: Which relative phosphorylation does the source give for “TTBK1, construct: Full length (from UniProt Q5TCY1)” here?
A: 0.815

Q: How did the relative phosphorylation turn out when “CHEK2, construct: Full length (from UniProt O96017)” was run?
A: 0.743

Q: Which relative phosphorylation does the source give for “MAP4K3, construct: aa1-380 (from UniProt Q8IVH8)” here?
A: 1.39

Q: Which relative phosphorylation does the source give for “CAMK1, construct: Full length (from UniProt Q14012)” here?
A: 0.614

Q: Which relative phosphorylation does the source give for “MAP3K10, construct: aa1-449 (from UniProt Q02779)” here?
A: 1.43

Q: With “EIF2AK1, construct: Full length (from UniProt Q9BQI3)” as the substance, how does the relative phosphorylation read?
A: 0.89

Q: Which relative phosphorylation does the source give for “PKN3, construct: Full length (from UniProt Q6P5Z2)” here?
A: 1.08

Same assay, conditions: G fixed; at -5

Q: “MOK, construct: aa1-343 (from UniProt Q9UQ07)” was tested. Which relative phosphorylation did it give?
A: 1.04

Q: For “TTBK1, construct: Full length (from UniProt Q5TCY1)”, which relative phosphorylation is on record?
A: 0.877

Q: For “CHEK2, construct: Full length (from UniProt O96017)”, which relative phosphorylation is on record?
A: 0.514

Q: How did the relative phosphorylation turn out when “MAP4K3, construct: aa1-380 (from UniProt Q8IVH8)” was run?
A: 1.32

Q: How did the relative phosphorylation turn out when “CAMK1, construct: Full length (from UniProt Q14012)” was run?
A: 0.402

Q: For “MAP3K10, construct: aa1-449 (from UniProt Q02779)”, which relative phosphorylation is on record?
A: 1.39

Q: How did the relative phosphorylation turn out when “EIF2AK1, construct: Full length (from UniProt Q9BQI3)” was run?
A: 0.897

Q: Which relative phosphorylation does the source give for “PKN3, construct: Full length (from UniProt Q6P5Z2)” here?
A: 0.973

Same assay, conditions: H fixed; at +1

Q: With “MOK, construct: aa1-343 (from UniProt Q9UQ07)” as the substance, how does the relative phosphorylation read?
A: 0.389

Q: Which relative phosphorylation does the source give for “TTBK1, construct: Full length (from UniProt Q5TCY1)” here?
A: 0.657

Q: For “CHEK2, construct: Full length (from UniProt O96017)”, which relative phosphorylation is on record?
A: 0.892

Q: Which relative phosphorylation does the source give for “MAP4K3, construct: aa1-380 (from UniProt Q8IVH8)” here?
A: 0.606

Q: With “CAMK1, construct: Full length (from UniProt Q14012)” as the substance, how does the relative phosphorylation read?
A: 0.834

Q: With “MAP3K10, construct: aa1-449 (from UniProt Q02779)” as the substance, how does the relative phosphorylation read?
A: 1.65

Q: How did the relative phosphorylation turn out when “EIF2AK1, construct: Full length (from UniProt Q9BQI3)” was run?
A: 0.788

Q: With “PKN3, construct: Full length (from UniProt Q6P5Z2)” as the substance, how does the relative phosphorylation read?
A: 0.667

Same assay, conditions: H fixed; at +2

Q: “MOK, construct: aa1-343 (from UniProt Q9UQ07)” was tested. Which relative phosphorylation did it give?
A: 1.44

Q: For “TTBK1, construct: Full length (from UniProt Q5TCY1)”, which relative phosphorylation is on record?
A: 1.1

Q: How did the relative phosphorylation turn out when “CHEK2, construct: Full length (from UniProt O96017)” was run?
A: 1.43

Q: Which relative phosphorylation does the source give for “MAP4K3, construct: aa1-380 (from UniProt Q8IVH8)” here?
A: 1.12

Q: How did the relative phosphorylation turn out when “CAMK1, construct: Full length (from UniProt Q14012)” was run?
A: 1.26

Q: With “MAP3K10, construct: aa1-449 (from UniProt Q02779)” as the substance, how does the relative phosphorylation read?
A: 2.11

Q: For “EIF2AK1, construct: Full length (from UniProt Q9BQI3)”, which relative phosphorylation is on record?
A: 1.24

Q: Which relative phosphorylation does the source give for “PKN3, construct: Full length (from UniProt Q6P5Z2)” here?
A: 1.55

Same assay, conditions: H fixed; at +3

Q: With “MOK, construct: aa1-343 (from UniProt Q9UQ07)” as the substance, how does the relative phosphorylation read?
A: 1.28

Q: Which relative phosphorylation does the source give for “TTBK1, construct: Full length (from UniProt Q5TCY1)” here?
A: 0.867

Q: “CHEK2, construct: Full length (from UniProt O96017)” was tested. Which relative phosphorylation did it give?
A: 1.05

Q: “MAP4K3, construct: aa1-380 (from UniProt Q8IVH8)” was tested. Which relative phosphorylation did it give?
A: 1.04

Q: Which relative phosphorylation does the source give for “CAMK1, construct: Full length (from UniProt Q14012)” here?
A: 1.23

Q: With “MAP3K10, construct: aa1-449 (from UniProt Q02779)” as the substance, how does the relative phosphorylation read?
A: 1.34

Q: “EIF2AK1, construct: Full length (from UniProt Q9BQI3)” was tested. Which relative phosphorylation did it give?
A: 1.12

Q: Which relative phosphorylation does the source give for “PKN3, construct: Full length (from UniProt Q6P5Z2)” here?
A: 1.32

Same assay, conditions: H fixed; at +4

Q: “MOK, construct: aa1-343 (from UniProt Q9UQ07)” was tested. Which relative phosphorylation did it give?
A: 1.09

Q: “TTBK1, construct: Full length (from UniProt Q5TCY1)” was tested. Which relative phosphorylation did it give?
A: 0.931

Q: Which relative phosphorylation does the source give for “CHEK2, construct: Full length (from UniProt O96017)” here?
A: 1.27

Q: With “MAP4K3, construct: aa1-380 (from UniProt Q8IVH8)” as the substance, how does the relative phosphorylation read?
A: 1.07

Q: For “CAMK1, construct: Full length (from UniProt Q14012)”, which relative phosphorylation is on record?
A: 0.911

Q: Which relative phosphorylation does the source give for “MAP3K10, construct: aa1-449 (from UniProt Q02779)” here?
A: 1.07

Q: “EIF2AK1, construct: Full length (from UniProt Q9BQI3)” was tested. Which relative phosphorylation did it give?
A: 1.01

Q: Which relative phosphorylation does the source give for “PKN3, construct: Full length (from UniProt Q6P5Z2)” here?
A: 1.3

Same assay, conditions: H fixed; at -1

Q: How did the relative phosphorylation turn out when “MOK, construct: aa1-343 (from UniProt Q9UQ07)” was run?
A: 1.19

Q: With “TTBK1, construct: Full length (from UniProt Q5TCY1)” as the substance, how does the relative phosphorylation read?
A: 0.834

Q: How did the relative phosphorylation turn out when “CHEK2, construct: Full length (from UniProt O96017)” was run?
A: 1.21

Q: “MAP4K3, construct: aa1-380 (from UniProt Q8IVH8)” was tested. Which relative phosphorylation did it give?
A: 1.21

Q: How did the relative phosphorylation turn out when “CAMK1, construct: Full length (from UniProt Q14012)” was run?
A: 1.17

Q: How did the relative phosphorylation turn out when “MAP3K10, construct: aa1-449 (from UniProt Q02779)” was run?
A: 1.39

Q: “EIF2AK1, construct: Full length (from UniProt Q9BQI3)” was tested. Which relative phosphorylation did it give?
A: 1.56

Q: For “PKN3, construct: Full length (from UniProt Q6P5Z2)”, which relative phosphorylation is on record?
A: 1.21

Same assay, conditions: H fixed; at -2

Q: How did the relative phosphorylation turn out when “MOK, construct: aa1-343 (from UniProt Q9UQ07)” was run?
A: 0.418

Q: Which relative phosphorylation does the source give for “TTBK1, construct: Full length (from UniProt Q5TCY1)” here?
A: 0.749

Q: With “CHEK2, construct: Full length (from UniProt O96017)” as the substance, how does the relative phosphorylation read?
A: 1.01

Q: “MAP4K3, construct: aa1-380 (from UniProt Q8IVH8)” was tested. Which relative phosphorylation did it give?
A: 1.34

Q: How did the relative phosphorylation turn out when “CAMK1, construct: Full length (from UniProt Q14012)” was run?
A: 0.757

Q: With “MAP3K10, construct: aa1-449 (from UniProt Q02779)” as the substance, how does the relative phosphorylation read?
A: 1.2

Q: For “EIF2AK1, construct: Full length (from UniProt Q9BQI3)”, which relative phosphorylation is on record?
A: 1.1

Q: With “PKN3, construct: Full length (from UniProt Q6P5Z2)” as the substance, how does the relative phosphorylation read?
A: 1.12

Same assay, conditions: H fixed; at -3

Q: With “MOK, construct: aa1-343 (from UniProt Q9UQ07)” as the substance, how does the relative phosphorylation read?
A: 0.564

Q: How did the relative phosphorylation turn out when “TTBK1, construct: Full length (from UniProt Q5TCY1)” was run?
A: 0.903

Q: With “CHEK2, construct: Full length (from UniProt O96017)” as the substance, how does the relative phosphorylation read?
A: 0.614

Q: Which relative phosphorylation does the source give for “MAP4K3, construct: aa1-380 (from UniProt Q8IVH8)” here?
A: 1.13

Q: With “CAMK1, construct: Full length (from UniProt Q14012)” as the substance, how does the relative phosphorylation read?
A: 0.603

Q: How did the relative phosphorylation turn out when “MAP3K10, construct: aa1-449 (from UniProt Q02779)” was run?
A: 1.19

Q: How did the relative phosphorylation turn out when “EIF2AK1, construct: Full length (from UniProt Q9BQI3)” was run?
A: 1.04

Q: “PKN3, construct: Full length (from UniProt Q6P5Z2)” was tested. Which relative phosphorylation did it give?
A: 1.06

Same assay, conditions: H fixed; at -4

Q: Which relative phosphorylation does the source give for “MOK, construct: aa1-343 (from UniProt Q9UQ07)” here?
A: 0.862

Q: “TTBK1, construct: Full length (from UniProt Q5TCY1)” was tested. Which relative phosphorylation did it give?
A: 0.951

Q: Which relative phosphorylation does the source give for “CHEK2, construct: Full length (from UniProt O96017)” here?
A: 0.953

Q: How did the relative phosphorylation turn out when “MAP4K3, construct: aa1-380 (from UniProt Q8IVH8)” was run?
A: 1.04

Q: How did the relative phosphorylation turn out when “CAMK1, construct: Full length (from UniProt Q14012)” was run?
A: 0.942

Q: “MAP3K10, construct: aa1-449 (from UniProt Q02779)” was tested. Which relative phosphorylation did it give?
A: 1.11

Q: With “EIF2AK1, construct: Full length (from UniProt Q9BQI3)” as the substance, how does the relative phosphorylation read?
A: 1.03

Q: “PKN3, construct: Full length (from UniProt Q6P5Z2)” was tested. Which relative phosphorylation did it give?
A: 1.09

Same assay, conditions: H fixed; at -5

Q: “MOK, construct: aa1-343 (from UniProt Q9UQ07)” was tested. Which relative phosphorylation did it give?
A: 1.09

Q: Which relative phosphorylation does the source give for “TTBK1, construct: Full length (from UniProt Q5TCY1)” here?
A: 0.747

Q: With “CHEK2, construct: Full length (from UniProt O96017)” as the substance, how does the relative phosphorylation read?
A: 0.619
